Laboratory results reported in patent US20070135998A1.

Target: VLA1 I-domain protein (human) (UniProt P56199)
Assay: KinExA, solution phase affinity, scFv

UniProt P56199, sequence (P56199 173-364 limits assumed): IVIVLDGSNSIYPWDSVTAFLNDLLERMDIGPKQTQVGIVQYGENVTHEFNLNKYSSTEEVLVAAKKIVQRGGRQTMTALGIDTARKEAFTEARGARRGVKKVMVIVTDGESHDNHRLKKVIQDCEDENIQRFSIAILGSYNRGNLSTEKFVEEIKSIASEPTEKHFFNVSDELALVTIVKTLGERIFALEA

Kd	Substance
49 nM	AQC2 single chain Fv mutant, light chain N52K (scFv)
17 nM	AQC2 single chain Fv mutant, light chain N52R (scFv)
31 nM	AQC2 single chain Fv mutant, light chain H31R (scFv)
6.3 nM	AQC2 single chain Fv mutant, heavy chain K64D (scFv)
34 nM	AQC2 single chain Fv mutant, heavy chain Y32F (scFv)
67 nM	AQC2 single chain Fv mutant, heavy chain D106N (scFv)
21 nM	AQC2 single chain Fv mutant, heavy chain L60D (scFv)
14 nM	AQC2 single chain Fv mutant, heavy chain T50V (scFv)
37 nM	AQC2 single chain Fv mutant, heavy chain S35Q (scFv)
12 nM	AQC2 single chain Fv mutant, heavy chain K64Q (scFv)
38 nM	AQC2 single chain Fv mutant, heavy chain K64E (scFv)
43 nM	AQC2 single chain Fv mutant, light chain N52H (scFv)
8.9 nM	AQC2 single chain Fv mutant, light chain N30V (scFv)
4.1 nM	AQC2 single chain Fv mutant, heavy chain K64N (scFv)
8.2 nM	AQC2 single chain Fv mutant, heavy chain R31Q (scFv)
25 nM	AQC2 single chain Fv (original) (scFv)
39 nM	AQC2 single chain Fv mutant, heavy chain S35N (scFv)
